Reference: paper PMC6715699

Target: T1, TRF2 (UniProt Q15554)
T1 sequence: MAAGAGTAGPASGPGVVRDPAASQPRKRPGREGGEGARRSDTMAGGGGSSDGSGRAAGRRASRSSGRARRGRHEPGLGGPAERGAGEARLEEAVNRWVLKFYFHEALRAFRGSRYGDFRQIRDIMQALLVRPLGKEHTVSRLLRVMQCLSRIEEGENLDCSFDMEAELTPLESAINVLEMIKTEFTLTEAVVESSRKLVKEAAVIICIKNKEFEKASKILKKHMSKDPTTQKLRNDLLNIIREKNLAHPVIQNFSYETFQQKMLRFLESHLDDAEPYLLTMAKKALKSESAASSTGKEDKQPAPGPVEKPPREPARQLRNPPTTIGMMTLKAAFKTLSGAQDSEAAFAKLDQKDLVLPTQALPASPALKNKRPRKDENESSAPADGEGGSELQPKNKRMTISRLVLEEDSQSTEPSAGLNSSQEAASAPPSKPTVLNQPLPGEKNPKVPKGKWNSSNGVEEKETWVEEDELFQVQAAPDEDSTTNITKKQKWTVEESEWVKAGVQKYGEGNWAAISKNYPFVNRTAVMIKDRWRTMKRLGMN
Experiment: MST
Conditions: 50 nM labelled DNA; MST in standard MST buffer (composition and pH not given), premium-treated capillaries, Monolith NT.115; 20 min at room temperature stated for the protein …

Question: For “TTAGGGTTAGGGTTAGGG (double strand) [TELO (TTAGGG)3]”, which Kd is on record?
Answer: Its Kd is 0.0122 µM.
